Results on 6 molecules are retold here after publication PMC8481266, “Structural and functional characterization of the bacterial biofilm activator RemA” (Nature Communications, 2021).

Numbering of substitutions follows the chain as printed. Several values for one entry are separate records, joined by “and”; a condition that tells them apart may be missing. Identical values can stand only once.

In data set [1] the target is T1, (Gt)RemA wild type, tag-free (Geobacillus thermodenitrificans NG-80) (UniProt A4IM41).
T1 sequence: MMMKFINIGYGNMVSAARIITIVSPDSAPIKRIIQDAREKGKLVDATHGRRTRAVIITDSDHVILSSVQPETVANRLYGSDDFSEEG
As to the kind of experiment: EMSA. The conditions noted are these: 20 mM HEPES pH 8.0, 1000 mM NaCl, 20 mM MgCl2, 20 mM KCl, 0.3 ug/ml BSA, 25 ug/ml herring sperm DNA, 10% glycerol, 0.25 mg/ml Orange-G; 1 pmol DNA in 14.5 ul …. (In general: In EMSA bound probe runs differently from free probe, usually more slowly.)

The target of data set [2] is T2, (Gt)RemA-R18W R18W (Geobacillus thermodenitrificans NG-80) (UniProt A4IM41).
T2 sequence: T1 sequence with R18W
The data set can be described thus: EMSA. The conditions noted are these: 20 mM HEPES pH 8.0, 1000 mM NaCl, 20 mM MgCl2, 20 mM KCl, 0.3 ug/ml BSA, 25 ug/ml herring sperm DNA, 10% glycerol, 0.25 mg/ml Orange-G; 1 pmol DNA in 14.5 ul ….

Data set [3] has as its target T3, (Gt)RemA wild type, His-tagged (Geobacillus thermodenitrificans NG-80) (UniProt A4IM41).
T3 sequence: T1 sequence
As to the kind of experiment: EMSA. The conditions noted are these: 20 mM HEPES pH 8.0, 1000 mM NaCl, 20 mM MgCl2, 20 mM KCl, 0.3 ug/ml BSA, 25 ug/ml herring sperm DNA, 10% glycerol, 0.25 mg/ml Orange-G; 1 pmol DNA in 14.5 ul ….

The target in data set [4] is T4, (Gt)RemA-R51A R51A (Geobacillus thermodenitrificans NG-80) (UniProt A4IM41).
T4 sequence: T1 sequence with R51A
As to the kind of experiment: EMSA. The following applies: 20 mM HEPES pH 8.0, 1000 mM NaCl, 20 mM MgCl2, 20 mM KCl, 0.3 ug/ml BSA, 25 ug/ml herring sperm DNA, 10% glycerol, 0.25 mg/ml Orange-G; 1 pmol DNA in 14.5 ul ….

For data set [5], the target named is T5, (Gt)RemA-R50A R50A (Geobacillus thermodenitrificans NG-80) (UniProt A4IM41).
T5 sequence: T1 sequence with R50A
As to the kind of experiment: EMSA. The following applies: 20 mM HEPES pH 8.0, 1000 mM NaCl, 20 mM MgCl2, 20 mM KCl, 0.3 ug/ml BSA, 25 ug/ml herring sperm DNA, 10% glycerol, 0.25 mg/ml Orange-G; 1 pmol DNA in 14.5 ul ….

Data set [6] concerns the target (His)-GB1-tagged (Gt)RemA (Geobacillus thermodenitrificans NG-80). As to the kind of experiment: SEC; SEC analysis of the (His)-GB1 constructs of (Bs)RemA and (Gt)RemA (Supplementary Figs. 2a, b).
The target of data set [7] is (Gt)RemA, RemA from Geobacillus thermodenitrificans, wild type, with N-terminal His-tag (Geobacillus thermodenitrificans NG-80). The data set can be described thus: crystal structure; sitting-drop crystallisation at 20 °C; X-ray data at ESRF; wild type by Se-SAD, variants by molecular replacement.
Data set [8] has the same target. As to the kind of experiment: SEC-MALS; analytical SEC-MALS of the two major SEC peaks; (Gt)RemA at 500 µM (Fig. 1b); R18W variant in Supplementary Fig. 1d. (In general: SEC sorts molecules by how far they enter the pores of the column.)
For data set [9] the target is unchanged. The data set can be described thus: crystal structure; sitting-drop crystallisation at 20 °C; X-ray data at ESRF; wild type by Se-SAD, variants by molecular replacement. The source holds these as a separate data set.
Data set [10] has as its target (Gt)RemA-R18W (Geobacillus thermodenitrificans NG-80). The data set can be described thus: SEC-MALS; analytical SEC-MALS of the two major SEC peaks; (Gt)RemA at 500 µM (Fig. 1b); R18W variant in Supplementary Fig. 1d.
Data set [11] shares this target. The data set can be described thus: crystal structure; sitting-drop crystallisation at 20 °C; X-ray data at ESRF; wild type by Se-SAD, variants by molecular replacement.
Data set [12] has as its target (Gt)RemA-R51A/R53A (Geobacillus thermodenitrificans NG-80). The description is as above.
Data set [13] concerns the molecule itself. As to the kind of experiment: SEC; SEC analysis of the (His)-GB1 constructs of (Bs)RemA and (Gt)RemA (Supplementary Figs. 2a, b).

Turning to “CTCCTCTATTCCTGTCGTTATTTCGTTCATTATAAGGAATTTTTCGTTCTTTATAAAATTTAAAATAATAAGGGAAGTGCAGTAAATTAGAGGAAAATCATGATTTTGTTCTCCAAAGAGAACTTATTGGCTTATTTTGCAATTTTTAAATAATAACGTTTTCTTTTATAATCCAATCATTAACAGAAAGGGGCGCGGGAAGCCAGCCGCGGGAAGGCTGAAGGCTATGAATACATGAATGAGAATATGAGTTTCAAAGAATTATATGCGATTGTCAGACACAGATTCG (double strand) [PepsA 289 bp fragment]”, the binding result in [1] is on record as “binds”; in data set [2], “binds”; in data set [3], “binds”; in data set [4] it was “no binding”; in data set [5], “no binding”.
For “(His)-GB1-tagged (Gt)RemA (natural protein)”, the stoichiometry N (in general, the number of molecules, sites or subunits per partner or assembly) in data set [6] was 8.
“(Gt)RemA, RemA from Geobacillus thermodenitrificans, wild type, with N-terminal His-tag (natural protein)”: the stoichiometry N in data set [7] is 16; in [8] it was 16 and 8; in data set [9], 8.
With (Gt)RemA-R18W (natural protein), the stoichiometry N was 14 and 7 in [10]; 7 in data set [11].
For (Gt)RemA-R51A/R53A (natural protein), in [12], the stoichiometry N came out at 8.

B1: (His)-GB1-tagged (Bs)RemA (natural protein, B. subtilis strain 3610, UniProt Q7WY72 1-89, looked up)
chain: MTIKLINIGFGNIISANRMISIVSPESAPIKRMIQDARDRGMLIDATYGRRTRAVVVMDSDHIILSAVQPETVAHRLSVKEEIMDEGQG
notes: RemA of Bacillus subtilis strain 3610; MW 9.6 kDa; A TEV cleavage site stands between the solubility tag and RemA; removal of the tag led to precipitation; also called His-GB1-(Bs)RemA; (Bs)RemA (His)-GB1 construct; not shown: His, N-terminal, kept
Regarding B1, in [13], the “stoichiometry N” value amounted to 8.
